Data set [1] has as its system HMGB1-WT (Homo sapiens). Kind of data set: restriction enzyme accessibility.
In data set [2] the test system is HMGB1-WT (Homo sapiens). Kind of data set: EMSA. Conditions: scale: fold lower affinity than with flanking DNA. For orientation: In EMSA bound probe runs differently from free probe, usually more slowly.

Take 40/40-Pst137 nucleosome: the K half in data set [1] worked out at 113 nM. For core nucleosome (0/0), the binding signal in data set [2] was found to be 10.

Source of the values: PMC11370580.
